# In US20230364254A1, “METHODS FOR TREATING CANCERS WITH ANTIBODY DRUG CONJUGATES (ADC) THAT BIND TO 191P4D12 PROTEINS” (priority 2020, published 2023):
# Test system: patients with locally advanced or metastatic urothelial cancer
# Experiment: Same phase 2 study: safety (adverse events, NCI CTCAE v4.03)
# Assay type: in vivo, human
# Source text: Safety assessments will be based on the information collected through the safety surveillance process and will include the data from recorded adverse events (AEs) including SAEs, recording of concomitant medication, physical examination findings, cardiac monitoring, and laboratory tests.
# The assessment of safety during the course of this study will consist of the surveillance and recording of AEs including SAEs, recording of concomitant medication, and measurements of protocol-specified physical examination findings, cardiac monitoring, and laboratory tests.
# AE severity should be graded using the National Cancer Institute's Common Terminology Criteria for Adverse Events (NCI CTCAE), Version 4.03. These criteria are provided in the study manual.
# An overview of AEs will provide a tabulation of the incidence of all AEs, treatment-emergent AEs, treatment-related AEs, Grade 3 and higher AEs. SAEs, treatment-related SAEs, deaths, and AEs leading to study treatment discontinuation. Adverse events will be defined as treatment emergent if they are newly occurring or worsened following study treatment.
# AEs will be classified by system organ class and preferred tem using the Medical Dictionary for Regulatory Activities (MedDRA) and graded using NCI CTCAE, Version 4.03.
# The incidence of AEs will be summarized by system organ class, preferred term, severity and relationship to study drug. In the event of multiple occurrences of the same AE in one patient, the AE will be counted once as the occurrence for the maximum grade. AEs leading to premature discontinuation of study drug will be summarized and listed in the same manner.
# [1] = Total (N = 214), count (percent)
# [2] = treatment-related TEAEs of interest
# [3] = treatment-related TEAEs of interest, as of last follow-up
# [4] = treatment-related TEAEs of interest, enfortumab vedotin 1.25 mg/kg, patients with locally advanced or metastatic urothelial cancer
# [5] = treatment-related TEAEs of interest, most occurred in Cycle 1
substance,measurement,setting,value
enfortumab vedotin: Nectin-4 directed ADC: fully human anti-nectin-4 IgG1 kappa antibody (AGS-22C3) conjugated to MMAE via protease-cleavable maleimidocaproyl valine-citrulline linker,Treatment-related AE leading to discontinuation: Multiple organ dysfunction syndrome,Total (N = 214),1 (0.5) n (%)
same,Treatment-related AE leading to discontinuation: Muscular weakness,Total (N = 214),1 (0.5) n (%)
same,Treatment-related AE leading to discontinuation: Overall,Total (N = 214),29 (13.6) n (%)
same,Treatment-related AE leading to discontinuation: Peripheral motor neuropathy,Total (N = 214),1 (0.5) n (%)
same,Treatment-related AE leading to discontinuation: Peripheral sensory neuropathy,Total (N = 214),12 (5.6) n (%)
same,Treatment-related AE leading to discontinuation: Pneumonitis,Total (N = 214),1 (0.5) n (%)
same,Treatment-related AE leading to discontinuation: Stevens-Johnson syndrome,Total (N = 214),1 (0.5) n (%)
same,Treatment-related TEAEs,Total (N = 214),203 (94.9) n (%)
same,Treatment-related TEAEs (all grades): Alopecia,Total (N = 214),107 (50.0) n (%)
same,Treatment-related TEAEs (all grades): Anaemia,Total (N = 214),49 (22.9) n (%)
same,Treatment-related TEAEs (all grades): Aspartate aminotransferase increased,Total (N = 214),24 (11.2) n (%)
same,Treatment-related TEAEs (all grades): Decreased appetite,Total (N = 214),84 (39.3) n (%)
same,Treatment-related TEAEs (all grades): Diarrhoea,Total (N = 214),61 (28.5) n (%)
same,Treatment-related TEAEs (all grades): Dry eye,Total (N = 214),36 (16.8) n (%)
same,Treatment-related TEAEs (all grades): Dry skin,Total (N = 214),46 (21.5) n (%)
same,Treatment-related TEAEs (all grades): Dysgeusia,Total (N = 214),71 (33.2) n (%)
same,Treatment-related TEAEs (all grades): Fatigue,Total (N = 214),92 (43.0) n (%)
same,Treatment-related TEAEs (all grades): Lacrimation increased,Total (N = 214),30 (14.0) n (%)
same,Treatment-related TEAEs (all grades): Nausea,Total (N = 214),70 (32.7) n (%)
same,Treatment-related TEAEs (all grades): Neutropenia,Total (N = 214),24 (11.2) n (%)
same,Treatment-related TEAEs (all grades): Oedema peripheral,Total (N = 214),25 (11.7) n (%)
same,Treatment-related TEAEs (all grades): Overall,Total (N = 214),203 (94.9) n (%)
same,Treatment-related TEAEs (all grades): Peripheral sensory neuropathy,Total (N = 214),92 (43.0) n (%)
same,Treatment-related TEAEs (all grades): Pruritus,Total (N = 214),59 (27.6) n (%)
same,Treatment-related TEAEs (all grades): Rash maculo-papular,Total (N = 214),55 (25.7) n (%)
same,Treatment-related TEAEs (all grades): Vomiting,Total (N = 214),26 (12.1) n (%)
same,Treatment-related TEAEs (all grades): Weight decreased,Total (N = 214),52 (24.3) n (%)
same,Treatment-related TEAEs leading to death,Total (N = 214),3 (1.4) n (%)
same,Treatment-related TEAEs leading to treatment discontinuation,Total (N = 214),29 (13.6) n (%)
same,Treatment-related TEAEs ≥Grade 3: Acute kidney injury,Total (N = 214),5 (2.3) n (%)
same,Treatment-related TEAEs ≥Grade 3: Amylase increased,Total (N = 214),6 (2.8) n (%)
same,Treatment-related TEAEs ≥Grade 3: Anaemia,Total (N = 214),14 (6.5) n (%)
same,Treatment-related TEAEs ≥Grade 3: Aspartate aminotransferase increased,Total (N = 214),6 (2.8) n (%)
same,Treatment-related TEAEs ≥Grade 3: Decreased appetite,Total (N = 214),6 (2.8) n (%)
same,Treatment-related TEAEs ≥Grade 3: Diarrhoea,Total (N = 214),8 (3.7) n (%)
same,Treatment-related TEAEs ≥Grade 3: Fatigue,Total (N = 214),14 (6.5) n (%)
same,Treatment-related TEAEs ≥Grade 3: Febrile neutropenia,Total (N = 214),6 (2.8) n (%)
same,Treatment-related TEAEs ≥Grade 3: Hyperglycaemia,Total (N = 214),10 (4.7) n (%)
same,Treatment-related TEAEs ≥Grade 3: Hyponatraemia,Total (N = 214),6 (2.8) n (%)
same,Treatment-related TEAEs ≥Grade 3: Lipase increased,Total (N = 214),10 (4.7) n (%)
same,Treatment-related TEAEs ≥Grade 3: Neutropenia,Total (N = 214),18 (8.4) n (%)
same,Treatment-related TEAEs ≥Grade 3: Neutrophil count decreased,Total (N = 214),16 (2.8) n (%)
same,Treatment-related TEAEs ≥Grade 3: Overall,Total (N = 214),119 (55.6) n (%)
same,Treatment-related TEAEs ≥Grade 3: Peripheral sensory neuropathy,Total (N = 214),5 (2.3) n (%)
same,Treatment-related TEAEs ≥Grade 3: Pruritus,Total (N = 214),5 (2.3) n (%)
same,Treatment-related TEAEs ≥Grade 3: Rash erythematous,Total (N = 214),6 (2.8) n (%)
same,Treatment-related TEAEs ≥Grade 3: Rash maculo-papular,Total (N = 214),12 (5.6) n (%)
same,Treatment-related grade 3-5 TEAEs,Total (N = 214),119 (55.6) n (%)
same,Treatment-related serious TEAEs,Total (N = 214),39 (18.2) n (%)
same,TEAEs leading to death (excluding disease progression): Acute kidney injury,[1],2 (0.9)
same,TEAEs leading to death (excluding disease progression): Acute respiratory failure,[1],1 (0.5)
same,TEAEs leading to death (excluding disease progression): Cardiac disorder,[1],1 (0.5)
same,TEAEs leading to death (excluding disease progression): Metabolic acidosis,[1],1 (0.5)
same,TEAEs leading to death (excluding disease progression): Multiple organ dysfunction syndrome,[1],1 (0.5)
same,TEAEs leading to death (excluding disease progression): Overall,[1],9 (4.2)
same,TEAEs leading to death (excluding disease progression): Pneumonia aspiration,[1],1 (0.5)
same,TEAEs leading to death (excluding disease progression): Sepsis,[1],2 (0.9)
same,Discontinuation due to treatment-related peripheral neuropathy,cohort 1,6%
same,Discontinuation rate due to treatment-related AEs,cohort 1,12%
same,Grade 3 or Grade 4 treatment-related TEAE: anemia,cohort 1,7%
same,Grade 3 or Grade 4 treatment-related TEAE: fatigue,cohort 1,6%
same,Grade 3 or Grade 4 treatment-related TEAE: neutropenia,cohort 1,8%
same,SAE (unrelated and related): cellulitis,cohort 1,4.8%
same,SAE (unrelated and related): urinary tract infection,cohort 1,4.8%
same,cases of Stevens-Johnson Syndrome reported,cohort 1,One
same,related SAE: febrile neutropenia,cohort 1,4%
same,subjects with a Grade 3 or Grade 4 treatment-related TEAE,cohort 1,54%
same,deaths assessed as treatment-related,"cohort 1, interstitial lung disease",one and One
same,Discontinuation due to treatment-related peripheral neuropathy,cohort 2,4.5%
same,Discontinuation rate due to treatment-related AEs,cohort 2,15.7%
same,SAE (unrelated and related): acute kidney injury,cohort 2,10.1%
same,deaths assessed as treatment-related by investigators,cohort 2,Four
same,related SAE: acute kidney injury,cohort 2,3.4%
same,subjects with a treatment-related TEAE greater than or equal to Grade 3,cohort 2,55.1%
same,treatment-related TEAE ≥Grade 3: fatigue,cohort 2,6.7%
same,treatment-related TEAE ≥Grade 3: neutropenia,cohort 2,9%
same,treatment-related TEAE ≥Grade 3: rash maculo-popular,cohort 2,7.9%
same,"Hyperglycemia, >Grade 3",[2],6%
same,"Peripheral Neuropathy, >Grade 3",[2],8%
same,"Peripheral Neuropathy, Median Onset",[2],2.6 months
same,"Skin Reactions, >Grade 3",[2],17%
same,"Hyperglycemia, Resolution/improvement",[3],89%
same,"Peripheral Neuropathy, Resolution/improvement",[3],54%
same,"Skin Reactions, Resolution/improvement",[3],80%
same,"Hyperglycemia, Any grade",[4],10%
same,"Peripheral Neuropathy, Any grade",[4],56%
same,"Skin Reactions, Any grade",[4],61%
same,"Hyperglycemia, Median Onset",[5],0.5ª months
same,"Skin Reactions, Median Onset",[5],0.5ª months
